# From patent US20190309079A1 (Regeneron, published 2019)
# T1: human LEPR CRH1 (D1)-MMH (human, UniProt P48357 22-229, limits assumed)
# T1 construct: domain: CRH1 (D1)
# T1 sequence (looked up): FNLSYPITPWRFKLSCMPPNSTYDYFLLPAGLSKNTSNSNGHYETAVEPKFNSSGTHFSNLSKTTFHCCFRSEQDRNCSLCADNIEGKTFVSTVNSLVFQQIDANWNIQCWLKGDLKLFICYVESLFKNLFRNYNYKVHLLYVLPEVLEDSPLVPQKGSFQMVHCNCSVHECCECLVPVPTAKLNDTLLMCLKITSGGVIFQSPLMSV
# T2: human LEPR CRH1 (D1,D2)-MMH (human, UniProt P48357 22-339, limits assumed)
# T2 construct: domain: CRH1 (D1,D2)
# T2 sequence (looked up): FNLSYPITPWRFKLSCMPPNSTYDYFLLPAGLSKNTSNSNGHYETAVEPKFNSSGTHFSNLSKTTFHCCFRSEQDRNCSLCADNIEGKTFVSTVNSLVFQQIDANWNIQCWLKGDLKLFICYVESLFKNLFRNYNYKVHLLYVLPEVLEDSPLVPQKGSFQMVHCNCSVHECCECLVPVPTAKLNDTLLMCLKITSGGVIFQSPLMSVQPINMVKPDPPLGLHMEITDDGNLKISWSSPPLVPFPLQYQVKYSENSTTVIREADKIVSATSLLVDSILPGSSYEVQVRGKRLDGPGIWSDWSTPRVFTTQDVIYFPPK
# T3: extracellular domain of human LEPR (amino acids 22-839 of P48357, Isoform B) with N-terminal myc-myc tag, … (human, UniProt P48357 22-839, GPI anchor at the C-terminus)
# T3 construct: also called HEK293/Mycx2-hLepR(Ecto)-GPI anchored cells
# T3 sequence: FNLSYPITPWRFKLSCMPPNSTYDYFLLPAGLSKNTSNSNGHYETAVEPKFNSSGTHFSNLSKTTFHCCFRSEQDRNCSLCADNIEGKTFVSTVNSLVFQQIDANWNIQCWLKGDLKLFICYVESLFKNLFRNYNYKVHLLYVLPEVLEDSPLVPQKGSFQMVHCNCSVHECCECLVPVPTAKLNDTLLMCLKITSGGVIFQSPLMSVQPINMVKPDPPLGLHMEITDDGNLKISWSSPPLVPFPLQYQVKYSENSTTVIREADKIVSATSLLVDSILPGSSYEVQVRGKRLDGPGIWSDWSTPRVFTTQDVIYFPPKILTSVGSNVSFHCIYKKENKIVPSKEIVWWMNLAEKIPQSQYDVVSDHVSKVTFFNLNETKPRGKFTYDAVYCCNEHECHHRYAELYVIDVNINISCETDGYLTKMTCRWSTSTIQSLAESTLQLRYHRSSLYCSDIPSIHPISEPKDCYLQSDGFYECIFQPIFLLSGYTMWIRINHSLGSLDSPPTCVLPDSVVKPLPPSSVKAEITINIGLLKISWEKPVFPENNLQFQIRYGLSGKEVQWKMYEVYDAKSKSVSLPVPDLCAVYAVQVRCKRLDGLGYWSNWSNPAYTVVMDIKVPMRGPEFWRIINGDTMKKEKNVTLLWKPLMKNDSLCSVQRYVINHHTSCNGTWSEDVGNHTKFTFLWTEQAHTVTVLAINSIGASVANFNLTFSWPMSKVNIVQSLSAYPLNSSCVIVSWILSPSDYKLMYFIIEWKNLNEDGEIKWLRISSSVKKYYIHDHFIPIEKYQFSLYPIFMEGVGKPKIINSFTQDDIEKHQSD
# Experiments:
# [1] = target: T4, extracellular domain portion of LEPR protein expressed with a C-terminal human Fc tag (hLEPR.hFc) (human); assay: blocking ELISA, hLeptin coated
# T4 construct: also called dimeric human LEPR
# Procedure: These antibody-protein or protein-protein complexes were then incubated for 1.5 hour at room temperature (RT). […] Samples were developed with a TMB solution (BD Biosciences, #555214; substrate A and B mixed at 1:1 ratio as per manufacturer's instructions) to produce a colorimetric reaction and then neutralized with 1M sulfuric acid before measuring absorbance at 450 nm on a Victor X5 plate reader.
# Data analysis was performed using a sigmoidal dose-response model within Prism™ software (GraphPad).
# [2] = target: T5, human LEPR extracellular domain expressed with a C-terminal myc-myc-hexahistidine tag (hLEPR.mmh) (human, UniProt P48357 22-839); assay: Luminex, myc-captured protein on beads
# T5 construct: tag included in the entry; also called human LEPR-MMH; monomeric human LEPR
# Procedure: (§1) Aliquots of microspheres with immobilized anti-myc monoclonal antibodies, prepared as described above, were added individually to 1 mL of the each of these protein supernatants. The microspheres were gently mixed, incubated for two hours at 25° C., washed twice with 1 mL of DBPS, centrifuged to remove the supernatant and finally resuspended in 1 mL of DPBS buffer. […] of anti-myc IgG coupled microspheres from individual reactions with full length human LEPR and with each of the human LEPR domain proteins were withdrawn and mixed together in 3.6 mL of PBS+20 mg/mL BSA+0.05% sodium azide (blocking buffer).
# (§2) From this mixed pool, 75 μL of microspheres were plated per well on a 96 well filter plate (Millipore, Cat. No: MSBVN1250) and mixed with 25 μL of individual anti-human LEPR monoclonal antibodies (0.5 or 5 μg/mL), incubated for two hours at 25° C. and then washed twice with 200 μL of DPBS with 0.05% Tween 20 (washing buffer). […] After 30 minutes, the samples were washed twice with 200 µL of washing buffer and resuspended in 150 μL of wash buffer. The Median Fluorescence intensity (MFI) of the microspheres was measured in a Luminex Analyzer.
# human LEPR CRH1 (D1)-MMH = target: T1, human LEPR CRH1 (D1)-MMH; assay: Luminex, myc-captured protein on beads
# Procedure: as §1, §2
# [3] = target: T2, human LEPR CRH1 (D1,D2)-MMH; assay: Luminex, myc-captured protein on beads
# Procedure: as §1, §2
# [4] = target: T3, extracellular domain of human LEPR …; assay: FACS, 10 nM Ab, HEK293/hLEPR-GPI, 1 uM Leptin
# Procedure: For the FACS analysis, HEK293 parental cells and HEK293/hLEPR-GPI cells were dissociated and plated onto 96-well v-bottom plates at 5×10⁵ cells/well in PBS containing 2% FBS (FACS buffer). […] Cells were subsequently fixed using BD CytoFix™ (Becton Dickinson, #554655), filtered, and analyzed on a HyperCyt Flow Cytometer (Beckman Coulter). Unstained and secondary antibody alone controls were also tested for all cell lines. The results were analyzed using ForeCyt (IntelliCyt) and FlowJo version 10 software to determine the geometric means of fluorescence for viable cells. The geometric mean of fluorescence for each sample was then normalized to the geometric mean of unstained cells to obtain relative binding per condition referred to as “binding ratios”, and these binding ratios were recorded for each antibody tested.
Binder,500 nM Ab Blocking of 10 nM hLEPR.hFc Binding to hLeptin (% blockade) [1],Luminex MFI [2],Luminex MFI (human LEPR CRH1 (D1)-MMH),Luminex MFI [3],Binding Ratio (normalized to unstained) [4]
"H4H18449P2 (antibody, human IgG4, V domains shown, human IgG4 Fc) VH: EVQLVESGGGLVQPGGSLRLSCVASGFTFNKYDMHWVRQTTGKGLEWVSGIDTDGDTYYPGSVKGRFTISRENAENSLYLQMNGLRVGDTAVYYCARWPWSGFYGAFDIWGQGTMVTVSS VL: not shown",8%,7980 MFI,20 MFI,2930 MFI,3110 fold
"H4H18445P2 (antibody, human IgG4, V domains shown, human IgG4 Fc) VH: QVQLQESGPGLVKPSQTLSLTCTVSGGSISSGGDYWSWIRQLPGKGLEWIGYIYYSGSAYYNPSLKSRGTISIDTSKNQFSLKLTSVTAADTAVYFCVKLRFLEWFLGGWFGPWGQGTLVTVSS VL: not shown",28%,6570 MFI,12 MFI,30 MFI,2490 fold
"H4H16650P2 (antibody, V domains shown) VH: QVQLVESGGGVVQPGKSLRLSCVASGFTFSSDAMYWVRQAPGKGLEWVAVIYYDGNYQYYEDSVKGRFTISRDNSQNTLDLQMNSLRVDDTAVYFCARLNWDYWYLDLWGRGTLVTVSS VL: not shown",-7%,7600 MFI,8 MFI,4720 MFI,3120 fold
"H4H18446P2 (antibody, human IgG4, V domains shown, human IgG4 Fc) VH: EVQLVESGGGLVQPGGSLRLSCAASGFTFSNYGMTWVRQAPGKGLEWVSAITGGGGSTYYSNSVKGRFTISRDNSKNTVYLRMNSVRAEDTAVYYCAKYKWNFVDDWGQGTTVTVSS VL: not shown",-5%,10500 MFI,17 MFI,682 MFI,
"H4H17319P2 (antibody, V domains shown, also called REGN4461) VH: QVQLVESGGSVVQPGRSLRLSCAASGFTFSTYAMYWVRQTPGKGLEWVAVLYSDGSNKYYIDSVKGRFTISRDTSTNTLYLQMSSLRADDSALYYCARLNWDYWYFDLWGRGTLVTVSS VL: not shown",9%,3300 MFI,8 MFI,1250 MFI,
"H4H18417P2 (antibody, V domains shown) VH: QVQLVESGGGVVQPGRSLRLSCAASGFTFSTYGMHWVRQAPGKGLEWVSVISYDESNKYYADSVKGRFTISRDNSKNALYLQMNSLRNEDTAVYYCARDRPFGLVTGWFDPWGQGTLVTVSS VL: not shown",16%,4890 MFI,10 MFI,16000 MFI,2600 fold
"H4H18438P2 (antibody, V domains shown) VH: QVQLVESGGGVVQPGRSLRLSCAASGFSFNTYGMHWVRQAPGKGLEWVTIIWYDGSIKYYADSVKGRFTISRDNSKNTLYLQMNSLRAEDTAVYYCARGGYSGYLYFDYWGQGTLVTVSS VL: not shown",15%,6250 MFI,13 MFI,18900 MFI,2410 fold
"H4H16679P2 (antibody, V domains shown) VH: QVQLVESGGGVVQPGRSLRLSCTASGFTFSSYAMYWVRQAPGKGLEWVSVIYYDGSYKYYADSVKGRFTISRDNSKNTLYLQMDSLRAEDTAVYYCASYNWNYWYFDFWGRGTLVTVSS VL: not shown",7%,7510 MFI,12 MFI,4390 MFI,2220 fold
"H4H17321P2 (antibody, V domains shown) VH: QVQLVESGGGVVQPGRSLRLSCEASGFSSSDNAMYWVRQAPGKGLEWVSVIYHDGSYKYYEDSVKGRFTIARDNSKNTLYLQMNSLRAEDTAVYYCARYNWNHWYFDVWGRGTLVTVSS VL: not shown",6%,4700 MFI,9 MFI,2650 MFI,
